The values below come from publication PMC6335420, “The cell cycle regulator GpsB functions as cytosolic adaptor for multiple cell wall enzymes” (Nature Communications, 2019).

Positions count from the first letter of the chain named. No end group written: not given here.

To fix the notation:
B1: BsGpsB_(1-68) (domain or fragment, B. subtilis, UniProt P0CI74 1-68, looked up)
chain: MLADKVKLSAKEILEKEFKTGVRGYKQEDVDKFLDMIIKDYETFHQEIEELQQENLQLKKQLEEASKK
notes: GpsB, Bacillus subtilis, residues 1-68; also called N-terminal domain of BsGpsB; source: E. coli, purified (Ni-NTA, thrombin, size exclusion)
B2: BsYpbE_(1-21), fluorescein-labelled (peptide)
peptide: MTNMSRVERRKAQNLYEDQNA
modifications: also: fluorescein label, position not given here
notes: also called 21-residue fragment of the cytoplasmic domain of BsYpbE; source: synthetic peptide
B3: SpGpsB_(1-63)^Asp33Ala (domain or fragment)
chain: MASIIFSAKDIFEQEFGREVRGYNKVEVDEFLADVIKDYETYAALVKSLRQEIADLKEELTRK
notes: also called SpGpsB^Asp33Ala; source: E. coli, purified (Ni-NTA, thrombin, ammonium sulphate precipitation, gel filtration)
B4: TAMRA-BsPBP11-32 wildtype (peptide)
peptide: GSMADQFNSREARRKANC(TAMRA‑maleimide)KSSPSPKKGKKRKKGG
notes: PBP1 (ponA), Bacillus subtilis, residues 1-32, cytoplasmic mini-domain; also called TAMRA-labelled BsPBP1 1-32 (Ser16Cys); 16-labelled peptide
B5: BsYrrS_(Δ13-16) (natural protein)
chain: MSNNQSRYENRDANLVLNILIAIVSILIVVVAANLFINSPSSKDVSKDSETAQKQESPASGKTEKKSDEDIKDSKKDTSDSEKDSEKSSDSDSKKDDSSSKKDDSDSDSSSDSAGDGLKDAKVTEGGSSSDVEKTYENPDWKAVGTEQTGEHAATYDSSSQDWAEMLKAISYATGVSTDNMTVLWLGNNGSPQDAKGKILDKATGNKYQVTITWVDEKGWKPTKVEKLK
notes: source: E. coli BL21(DE3), purified from membranes (Ni-NTA, Superdex 200)
B6: BsPBP1_(1-17) (peptide, UniProt P39793 1-17, looked up)
peptide: MSDQFNSREARRKANSK
notes: PBP1, Bacillus subtilis, residues 1-17; also called first 17 amino acids of BsPBP1; source: synthetic peptide

Common to all, as to details: both partners purified
In assay [1] the target is T1, BsPBP1_(1-32)^Ala10Pro, TAMRA-labelled at position 16 (B. subtilis, UniProt P39793 1-32, Ser16Cys | Ala10Pro, TAMRA (maleimide) at position 16).
T1 construct: PBP1, Bacillus subtilis, residues 1-32; source: E. coli, His-tagged MBP fusion purified (Ni-NTA), labelled, TEV-cleaved, ultrafiltration
T1 peptide (looked up): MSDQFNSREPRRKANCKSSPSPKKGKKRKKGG
Kind of assay: fluorescence polarisation; GpsB protein titrated into fluorescently labelled peptide; 10 mM Tris.HCl pH 8.0, 250 mM NaCl, 0.1% reduced Triton X-100; fit to a 1:1 interaction model.

Assay [2] concerns the target T2, BsPBP1_(1-32)^Arg8Ala, TAMRA-labelled at position 16 (B. subtilis, UniProt P39793 1-32, Ser16Cys | Arg8Ala, TAMRA (maleimide) at position 16).
T2 construct: PBP1, Bacillus subtilis, residues 1-32; also called BsPBP1^Arg8Ala; source: E. coli, His-tagged MBP fusion purified (Ni-NTA), labelled, TEV-cleaved, ultrafiltration
T2 peptide (looked up): T1 peptide (looked up) with R8A, P10A
The assay is described as above.

The target in assay [3] is T3, BsPBP1_(1-32)^Arg11Ala, TAMRA-labelled at position 16 (B. subtilis, UniProt P39793 1-32, Ser16Cys | Arg11Ala, TAMRA (maleimide) at position 16).
T3 construct: PBP1, Bacillus subtilis, residues 1-32; also called BsPBP1^Arg11Ala; source: E. coli, His-tagged MBP fusion purified (Ni-NTA), labelled, TEV-cleaved, ultrafiltration
T3 peptide (looked up): T1 peptide (looked up) with P10A, R11A
The description is as above.

For assay [4], the target named is T4, BsPBP1_(1-32)^Arg8Lys, TAMRA-labelled at position 16 (B. subtilis, UniProt P39793 1-32, Ser16Cys | Arg8Lys, TAMRA (maleimide) at position 16).
T4 construct: PBP1, Bacillus subtilis, residues 1-32; also called BsPBP1^Arg8Lys; source: E. coli, His-tagged MBP fusion purified (Ni-NTA), labelled, TEV-cleaved, ultrafiltration
T4 peptide (looked up): T1 peptide (looked up) with R8K, P10A
The assay is described as above.

Assay [5] deals with T5, BsPBP1_(1-32)^Ser7Ala, TAMRA-labelled at position 16 (B. subtilis, UniProt P39793 1-32, Ser16Cys | Ser7Ala, TAMRA (maleimide) at position 16).
T5 construct: PBP1, Bacillus subtilis, residues 1-32; source: E. coli, His-tagged MBP fusion purified (Ni-NTA), labelled, TEV-cleaved, ultrafiltration
T5 peptide (looked up): T1 peptide (looked up) with S7A, P10A
Described as above.

Assay [6] concerns the target B1. The assay can be described thus: fluorescence polarisation.
For assay [7], the target named is T6, SpPBP2a_(23-45), TAMRA-labelled (S. pneumoniae R6, UniProt Q8DNB6 23-45, Gly43 to cysteine, TAMRA (maleimide) label).
T6 construct: source: E. coli, His-tagged MBP fusion purified (Ni-NTA), labelled, TEV-cleaved, ultrafiltration
T6 peptide: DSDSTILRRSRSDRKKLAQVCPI
The assay can be described thus: fluorescence polarisation.

For assay [8], the target named is T7, BsGpsB1-68 Glu17Ala (B. subtilis, UniProt P0CI74 1-68, Glu17Ala).
T7 construct: GpsB, Bacillus subtilis, residues 1-68 (N-terminal domain); also called BsGpsB1-68 E17A; source: E. coli BL21(DE3), purified (Ni-NTA, thrombin removal of the His6-tag, SEC); not shown: His6, N-terminal, cleaved
T7 sequence (looked up): B1 chain with E17A
The assay can be described thus: fluorescence polarisation; GpsB protein titrated into TAMRA- or fluorescein-labelled peptide; 10 mM Tris.HCl pH 8.0, 250 mM NaCl, 0.1% reduced Triton X-100; all data fitted to a 1:1 interaction model, Kd ± standard error.

In assay [9] the target is T8, BsGpsB1-68 (B. subtilis, UniProt P0CI74 1-68).
T8 construct: GpsB, Bacillus subtilis, residues 1-68 (N-terminal domain); also called N-terminal domain of B. subtilis GpsB; wildtype BsGpsB1-68; source: E. coli BL21(DE3), purified (Ni-NTA, thrombin removal of the His6-tag, SEC); not shown: His6, N-terminal, cleaved
T8 sequence (looked up): B1 chain
Described as above.

The target of assay [10] is T9, BsGpsB1-68 Tyr25Phe (B. subtilis, UniProt P0CI74 1-68, Tyr25Phe).
T9 construct: GpsB, Bacillus subtilis, residues 1-68 (N-terminal domain); also called BsGpsB1-68 Y25F; source: E. coli BL21(DE3), purified (Ni-NTA, thrombin removal of the His6-tag, SEC); not shown: His6, N-terminal, cleaved
T9 sequence (looked up): B1 chain with Y25F
Described as above.

For assay [11], the target named is T10, BsGpsB (B. subtilis, UniProt P0CI74 1-98).
T10 construct: GpsB, Bacillus subtilis, full-length protein; purification not described here; also called full-length B. subtilis GpsB
T10 sequence (looked up): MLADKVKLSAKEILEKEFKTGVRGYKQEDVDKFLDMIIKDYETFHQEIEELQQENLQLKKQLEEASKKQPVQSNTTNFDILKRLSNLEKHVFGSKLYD
The assay is described as above.

For assay [12], the target named is T11, BsGpsB1-68 Asp31Ala (B. subtilis, UniProt P0CI74 1-68, Asp31Ala).
T11 construct: GpsB, Bacillus subtilis, residues 1-68 (N-terminal domain); also called BsGpsB1-68 D31A; source: E. coli BL21(DE3), purified (Ni-NTA, thrombin removal of the His6-tag, SEC); not shown: His6, N-terminal, cleaved
T11 sequence (looked up): B1 chain with D31A
Described as above.

Assay [13] has as its target T12, BsGpsB1-68 Asp35Ala (B. subtilis, UniProt P0CI74 1-68, Asp35Ala).
T12 construct: GpsB, Bacillus subtilis, residues 1-68 (N-terminal domain); also called BsGpsB1-68 D35A; source: E. coli BL21(DE3), purified (Ni-NTA, thrombin removal of the His6-tag, SEC); not shown: His6, N-terminal, cleaved
T12 sequence (looked up): B1 chain with D35A
The description is as above.

Assay [14] has as its target T13, full-length BsPBP1 (Bacillus subtilis PBP1) (B. subtilis, UniProt P39793 1-914).
T13 construct: also called wild-type BsPBP1; source: E. coli, purified from membrane pellets (His select resin, thrombin, Superdex S200)
T13 sequence (looked up): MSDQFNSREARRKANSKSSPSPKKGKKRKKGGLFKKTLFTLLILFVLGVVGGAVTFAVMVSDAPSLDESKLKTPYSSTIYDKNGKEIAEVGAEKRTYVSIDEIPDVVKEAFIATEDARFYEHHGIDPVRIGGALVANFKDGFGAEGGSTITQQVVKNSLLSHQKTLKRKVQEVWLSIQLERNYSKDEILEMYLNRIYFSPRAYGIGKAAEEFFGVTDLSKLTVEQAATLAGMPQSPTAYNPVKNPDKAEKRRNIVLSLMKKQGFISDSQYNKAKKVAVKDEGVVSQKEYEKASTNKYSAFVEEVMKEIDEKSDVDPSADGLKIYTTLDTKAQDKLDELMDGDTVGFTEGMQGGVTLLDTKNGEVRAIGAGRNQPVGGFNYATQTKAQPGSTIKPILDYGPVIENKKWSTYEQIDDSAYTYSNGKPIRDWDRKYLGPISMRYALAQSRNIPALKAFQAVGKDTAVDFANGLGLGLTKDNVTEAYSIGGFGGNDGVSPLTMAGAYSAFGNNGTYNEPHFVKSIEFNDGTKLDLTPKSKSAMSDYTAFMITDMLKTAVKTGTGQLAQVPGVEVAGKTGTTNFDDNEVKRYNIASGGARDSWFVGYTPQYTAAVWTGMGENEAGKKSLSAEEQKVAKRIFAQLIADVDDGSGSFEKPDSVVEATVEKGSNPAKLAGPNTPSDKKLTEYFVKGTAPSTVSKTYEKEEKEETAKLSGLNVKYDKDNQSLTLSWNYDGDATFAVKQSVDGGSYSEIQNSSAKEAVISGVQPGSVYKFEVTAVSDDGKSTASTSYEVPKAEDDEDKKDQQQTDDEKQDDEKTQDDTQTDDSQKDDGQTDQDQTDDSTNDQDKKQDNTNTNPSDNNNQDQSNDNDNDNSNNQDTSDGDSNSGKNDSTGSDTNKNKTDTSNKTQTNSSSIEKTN
The assay can be described thus: SPR.

The target of assay [15] is T14, BsGpsB_(5-64) (B. subtilis 168, UniProt P0CI74 5-64).
T14 construct: GpsB, Bacillus subtilis 168, residues 5-64; two molecules in the asymmetric unit; also called N-terminal domain of BsGpsB, termini truncated; source: E. coli, purified (Ni-NTA, TEV, Superdex 75); not shown: His6, N-terminal, cleaved
T14 sequence (looked up): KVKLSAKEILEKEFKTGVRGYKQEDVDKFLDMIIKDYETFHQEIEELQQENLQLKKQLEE
Kind of assay: crystal structure; co-crystallisation of GpsB N-terminal domain with PBP peptide, 1:5 molar ratio protein:peptide, room temperature.

Consider B1, for which the “fold reduction in affinity against wild type” value in assay [1] was at least 6 fold; in [2], at least 5 fold; in [3], at least 5 fold; in assay [4], at least 5 fold; in assay [5] it was at least 6 fold.

In assay [6], B2 showed a Kd of 13 µM.

Turning to B3, the “fold reduction in affinity against wild type” value in assay [7] is about 40 fold.

Regarding B4, the Kd in assay [8] was over 1300 µM; in assay [9], 120 µM; in assay [10], over 2000 µM; in assay [11], 160 µM; in assay [12], over 1900 µM; in assay [13], over 2000 µM.

Molecule B5 returned a Kd in assay [14] of 0.02 µM.

B6: in [15], the binding result was “binds”.
